Laboratory results as given in article PMC7015237, “mTORC1 signalling is not essential for the maintenance of muscle mass and function in adult sedentary mice” (Journal of Cachexia, Sarcopenia and Muscle, 2019).

Target: T1, eukaryotic translation initiation factor 4E (mouse (endogenous in gastrocnemius …, UniProt P63073 1-217))
T1 construct: eukaryotic translation initiation factor 4E (eIF4E), mouse, endogenous in gastrocnemius muscle; also called eIF4E; source: endogenous, mouse gastrocnemius muscle lysate (3 month iRAmKO and control mice)
Experiment: pull-down; m7GTP-agarose beads on 400 ug gastrocnemius lysate of 3 month iRAmKO (raptor-depleted) and control mice, overnight at 4°C; lysis buffer 20 mM Hepes pH 7.4, 50 mM KCl, 0.2 mM EDTA, 0.5% Triton X-100; western blot for eIF4E and 4E-BP1; 4E-BP1 normalised to eIF4E
Settings: partners not purified

T1 sequence (P63073 whole entry): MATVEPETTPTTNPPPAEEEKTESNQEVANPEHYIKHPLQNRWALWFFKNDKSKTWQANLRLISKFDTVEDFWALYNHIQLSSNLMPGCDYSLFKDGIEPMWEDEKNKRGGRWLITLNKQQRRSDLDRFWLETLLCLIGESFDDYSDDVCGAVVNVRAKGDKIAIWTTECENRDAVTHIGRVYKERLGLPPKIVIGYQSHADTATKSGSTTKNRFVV

- fold change of the ratio of 4E-BP1 to eIF4E in the m7GTP pulldown, iRAmKO against control mice: 2.5 fold
B1: eukaryotic translation initiation factor 4E-binding protein 1 (natural protein, UniProt Q60876 1-117, looked up)
chain: MSAGSSCSQTPSRAIPTRRVALGDGVQLPPGDYSTTPGGTLFSTTPGGTRIIYDRKFLMECRNSPVAKTPPKDLPAIPGVTSPTSDEPPMQASQSQLPSSPEDKRAGGEESQFEMDI
notes: Phosphorylation of 4E-BP1 (S65) is lower in iRAmKO muscle than in controls; the phosphorylation state of the pulled-down protein was not determined; also called 4E-BP1; source: endogenous, mouse gastrocnemius muscle lysate (3 month iRAmKO and control mice)
